Reference: IntAct's records for PubMed 12620186

Target: wipf1_human WIPF1 (UniProt O43516)
Sequence (O43516 whole entry): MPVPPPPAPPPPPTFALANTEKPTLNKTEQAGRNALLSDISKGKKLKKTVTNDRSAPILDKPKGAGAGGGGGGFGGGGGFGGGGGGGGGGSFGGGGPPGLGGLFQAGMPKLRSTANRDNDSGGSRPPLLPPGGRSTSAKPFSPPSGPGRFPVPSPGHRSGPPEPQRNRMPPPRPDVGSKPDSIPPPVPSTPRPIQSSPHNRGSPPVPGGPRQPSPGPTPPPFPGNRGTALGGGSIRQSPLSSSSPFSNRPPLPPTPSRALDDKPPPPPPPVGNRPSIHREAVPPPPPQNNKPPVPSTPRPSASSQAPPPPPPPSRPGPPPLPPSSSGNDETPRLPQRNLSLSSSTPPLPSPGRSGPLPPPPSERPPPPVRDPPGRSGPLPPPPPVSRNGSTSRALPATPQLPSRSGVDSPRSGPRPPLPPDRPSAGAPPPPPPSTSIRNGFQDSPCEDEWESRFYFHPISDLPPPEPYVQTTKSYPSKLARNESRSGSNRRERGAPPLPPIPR

Src substrate cortactin (Mus musculus), Q60598 W526K, sequence (Q60598 whole entry W526K): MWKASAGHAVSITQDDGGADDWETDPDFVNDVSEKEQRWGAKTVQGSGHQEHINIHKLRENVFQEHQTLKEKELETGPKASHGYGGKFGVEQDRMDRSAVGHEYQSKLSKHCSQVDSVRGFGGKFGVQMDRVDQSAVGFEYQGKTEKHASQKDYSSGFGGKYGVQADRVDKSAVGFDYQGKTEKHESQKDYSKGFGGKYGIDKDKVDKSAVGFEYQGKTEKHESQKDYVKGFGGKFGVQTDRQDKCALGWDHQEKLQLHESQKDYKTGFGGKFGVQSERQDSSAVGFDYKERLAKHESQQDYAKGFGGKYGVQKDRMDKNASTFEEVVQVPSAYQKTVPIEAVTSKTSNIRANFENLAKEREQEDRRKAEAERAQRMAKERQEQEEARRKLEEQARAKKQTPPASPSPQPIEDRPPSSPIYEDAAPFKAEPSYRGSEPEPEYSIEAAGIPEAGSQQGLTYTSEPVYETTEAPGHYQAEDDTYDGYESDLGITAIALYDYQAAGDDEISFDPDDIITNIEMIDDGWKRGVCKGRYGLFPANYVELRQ

effect of a mutation on the interaction: disrupting interaction
Substance: Src substrate cortactin (Mus musculus), Q60598 W526K
